The target in the assay is Rubisco purified from wheat leaves, inhibited by RuBP (ER) (Triticum aestivum (wheat)) (UniProt P11383). The assay is described as follows: cell-based or functional assay.
As for “Rca extracted from control wheat leaves (TaRca-leaf-25° C.) (enzyme)”, the Tm (° C.) (V): thermal midpoint at which half of Rubisco activation velocity by Rca is lost came out at 38.6 ° C.

For “Rca extracted from heat treated wheat leaves (TaRca-leaf-38° C.) (enzyme)”, the Tm (° C.) (V): thermal midpoint at which half of Rubisco activation velocity by Rca is lost was determined as 39.5 ° C.

For the substance “recombinant rice Rca β (OsRca-β), signal peptide deleted, C-terminal His-tag (from UniProt P93431 49-466) (enzyme)”, the Tm (° C.) (V): thermal midpoint at which half of Rubisco activation velocity by Rca is lost worked out at 42.5 ° C.

For “recombinant wheat Rca1 β (TaRca1-β), signal peptide deleted, C-terminal His-tag (from UniProt Q42450 44-425) (enzyme)”, the Tm (° C.) (V): thermal midpoint at which half of Rubisco activation velocity by Rca is lost was found to be 42 ° C.

Turning to “recombinant wheat Rca2 α (TaRca2-α), signal peptide deleted, C-terminal His-tag (from UniProt Q40073 47-464) (enzyme)”, the Tm (° C.) (V): thermal midpoint at which half of Rubisco activation velocity by Rca is lost stood at 35.3 ° C.

For “recombinant wheat Rca2 β (TaRca2-β), signal peptide deleted, C-terminal His-tag (from UniProt Q40073 49-427) (enzyme)”, the Tm (° C.) (V): thermal midpoint at which half of Rubisco activation velocity by Rca is lost was determined as 34.8 ° C.

These data come from US20210269818A1.
